Measurements reported in article PMC4874776.

How the values were obtained:
[1] = target: glycosylated FG domain of Nup98 from Xenopus tropicalis (Nup98-glyco), amino acids 1 to 485, with an N-terminal His14-TEV tag (X. tropicalis); experiment: spectroscopic ellipsometry; NTF2 and NTF2 W7A mutant sequentially exposed to FG domain films (5-13 pmol/cm^2), equilibrium bound amounts by SE, two to four measurements per FG domain type; native NTF2 on a reg-SSSG film (8.3 pmol/cm^2) as control
[2] = target: reg-FSFG, an artificially designed regular FSFG domain with 16 repetitions of the sequence … and an N-terminal His14-TEV tag; experiment: as above
[3] = target: glycosylated FG domain of Nup98 from Xenopus tropicalis (Nup98-glyco), amino acids 1 to 485, with an N-terminal His14-TEV tag (X. tropicalis); experiment: spectroscopic ellipsometry + QCM-D; FG domain end-grafted through its His tag (4-11 pmol/cm^2) on His tag capturing QCM-D sensors (NTF2 with Nsp1) or on Ni2+-NTA supported lipid bilayers (Nup98-glyco, reg-FSFG, Impβ with Nsp1); NTR titrated in solution from 0.0025 to 10 uM, equilibrium bound amounts by SE; 10 mM Hepes pH 7.4, 150 mM NaCl, 23 °C; linear fit at cNTR <= 0.05 uM, Hill equation at 0.05-10 uM
[4] = target: reg-FSFG, an artificially designed regular FSFG domain with 16 repetitions of the sequence … and an N-terminal His14-TEV tag; experiment: as above

| reduction of the equilibrium bound amount against native NTF2 [1] [%] | reduction of the equilibrium bound amount against native NTF2 [2] [%] | FG motifs in the film per bound NTR at cNTR = 10 uM (FG motifs per bound NTF2 dimer) [3] | FG motifs in the film per bound NTR at cNTR = 10 uM (FG motifs per bound NTF2 dimer) [4] | Substance |
| --- | --- | --- | --- | --- |
| > 80 | > 80 | – | – | W7A mutant of NTF2 (from UniProt P61970 1-127) (receptor) |
| – | – | > 10 | > 10 | nuclear transport factor 2 from Homo sapiens (NTF2) (from UniProt P61970 1-127) (receptor) |
